{"source": "patent US20100196266A1", "about": "(published 2010)", "key": {"human CD74 on cells [1]": {"molecular_target": "T1, human CD74 on cells (human, UniProt P04233 1-296)", "T1 construct": "whole, on cells", "T1 sequence (looked up)": "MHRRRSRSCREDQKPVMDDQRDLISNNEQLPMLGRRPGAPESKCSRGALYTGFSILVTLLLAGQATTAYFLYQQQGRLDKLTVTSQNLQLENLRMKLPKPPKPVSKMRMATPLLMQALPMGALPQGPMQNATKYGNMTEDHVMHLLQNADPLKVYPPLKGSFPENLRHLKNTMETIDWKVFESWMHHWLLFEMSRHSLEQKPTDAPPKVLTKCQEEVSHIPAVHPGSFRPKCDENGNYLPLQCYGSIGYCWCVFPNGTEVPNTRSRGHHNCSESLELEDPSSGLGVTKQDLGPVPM", "test": "indirect flow cytometry, FITC-GAH Fc, WSU-FSCCL cells; none 2.7"}, "human CD74 on cells [2]": {"molecular_target": "T1, human CD74 on cells", "test": "indirect FACS, FITC-GAH Fc, Raji cells; none 6.8"}, "human CD74 on cells [3]": {"molecular_target": "T1, human CD74 on cells", "test": "indirect FACS, FITC-GAH Fc, SU-DHL-6 cells; none 4.6"}, "human CD74 on cells [4]": {"molecular_target": "T1, human CD74 on cells", "test": "indirect flow cytometry, FITC-GAH Fc, Namalwa cells; none 2.6"}, "human CD74 on cells [5]": {"molecular_target": "T1, human CD74 on cells", "test": "indirect flow cytometry, Namalwa cells, FITC-GAH; none 2.52"}, "human CD74 on cells [6]": {"molecular_target": "T1, human CD74 on cells", "test": "indirect flow cytometry, FITC-GAH Fc, Ramos cells; none 3.1"}, "human CD74 on cells [7]": {"molecular_target": "T1, human CD74 on cells", "test": "indirect FACS, FITC-GAH Fc, WSU-FSCCL cells; none 2.6"}, "human CD74 on cells [8]": {"molecular_target": "T1, human CD74 on cells", "test": "indirect flow cytometry, FITC-GAH Fc, Raji cells; none 6.9"}, "human CD74 on cells [9]": {"molecular_target": "T1, human CD74 on cells", "test": "indirect flow cytometry, FITC-GAH Fc, RL cells; none 2.4"}, "human CD74 on cells [10]": {"molecular_target": "T1, human CD74 on cells", "test": "indirect flow cytometry, FITC-GAH Fc, Daudi cells; none 3.2"}, "human CD74 on cells [11]": {"molecular_target": "T1, human CD74 on cells", "test": "indirect FACS, FITC-GAH Fc, Ramos cells; none 3.1"}, "human CD74 on cells [12]": {"molecular_target": "T1, human CD74 on cells", "test": "indirect FACS, FITC-GAH Fc, Namalwa cells; none 2.5"}, "human CD74 on cells [13]": {"molecular_target": "T1, human CD74 on cells", "test": "indirect flow cytometry, FITC-GAH Fc, SU-DHL-6 cells; none 4.6"}, "human CD74 on cells [14]": {"molecular_target": "T1, human CD74 on cells", "test": "indirect FACS, FITC-GAH Fc, Daudi cells; none 3.1"}, "human CD22 on cells [15]": {"molecular_target": "T2, human CD22 on cells (human, UniProt P20273 20-847)", "T2 construct": "whole, on cells", "test": "indirect FACS, FITC-GAH Fc, SU-DHL-6 cells; none 4.6"}, "human CD22 on cells [16]": {"molecular_target": "T2, human CD22 on cells", "test": "indirect flow cytometry, Namalwa cells, FITC-GAH; none 2.52"}, "human CD22 on cells [17]": {"molecular_target": "T2, human CD22 on cells", "test": "indirect FACS, FITC-GAH Fc, WSU-FSCCL cells; none 2.6"}, "human CD22 on cells [18]": {"molecular_target": "T2, human CD22 on cells", "test": "indirect FACS, FITC-GAH Fc, Namalwa cells; none 2.5"}, "human CD22 on cells [19]": {"molecular_target": "T2, human CD22 on cells", "test": "indirect flow cytometry, FITC-GAH Fc, SU-DHL-6 cells; none 4.6"}, "human CD20 on cells [20]": {"molecular_target": "T3, human CD20 on cells (human, UniProt P11836 1-297)", "T3 construct": "whole, on cells", "T3 sequence (looked up)": "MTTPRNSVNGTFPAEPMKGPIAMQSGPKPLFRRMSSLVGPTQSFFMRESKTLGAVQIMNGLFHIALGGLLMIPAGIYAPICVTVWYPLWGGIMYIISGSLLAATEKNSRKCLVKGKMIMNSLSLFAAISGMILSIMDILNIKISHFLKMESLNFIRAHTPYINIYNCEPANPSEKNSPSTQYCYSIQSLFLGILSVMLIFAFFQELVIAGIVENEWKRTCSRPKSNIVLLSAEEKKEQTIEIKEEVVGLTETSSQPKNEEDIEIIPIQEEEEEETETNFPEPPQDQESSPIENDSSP", "test": "indirect flow cytometry, FITC-GAH Fc, WSU-FSCCL cells; none 2.7"}, "human CD20 on cells [21]": {"molecular_target": "T3, human CD20 on cells", "test": "indirect FACS, FITC-GAH Fc, Raji cells; none 6.8"}, "human CD20 on cells [22]": {"molecular_target": "T3, human CD20 on cells", "test": "indirect FACS, FITC-GAH Fc, SU-DHL-6 cells; none 4.6"}, "human CD20 on cells [23]": {"molecular_target": "T3, human CD20 on cells", "test": "indirect flow cytometry, FITC-GAH Fc, Namalwa cells; none 2.6"}, "human CD20 on cells [24]": {"molecular_target": "T3, human CD20 on cells", "test": "indirect flow cytometry, Namalwa cells, FITC-GAH; none 2.52"}, "human CD20 on cells [25]": {"molecular_target": "T3, human CD20 on cells", "test": "indirect flow cytometry, FITC-GAH Fc, Ramos cells; none 3.1"}, "human CD20 on cells [26]": {"molecular_target": "T3, human CD20 on cells", "test": "indirect FACS, FITC-GAH Fc, WSU-FSCCL cells; none 2.6"}, "human CD20 on cells [27]": {"molecular_target": "T3, human CD20 on cells", "test": "indirect flow cytometry, FITC-GAH Fc, Raji cells; none 6.9"}, "human CD20 on cells [28]": {"molecular_target": "T3, human CD20 on cells", "test": "indirect flow cytometry, FITC-GAH Fc, RL cells; none 2.4"}, "human CD20 on cells [29]": {"molecular_target": "T3, human CD20 on cells", "test": "indirect flow cytometry, FITC-GAH Fc, Daudi cells; none 3.2"}, "human CD20 on cells [30]": {"molecular_target": "T3, human CD20 on cells", "test": "indirect FACS, FITC-GAH Fc, Ramos cells; none 3.1"}, "human CD20 on cells [31]": {"molecular_target": "T3, human CD20 on cells", "test": "indirect FACS, FITC-GAH Fc, Namalwa cells; none 2.5"}, "human CD20 on cells [32]": {"molecular_target": "T3, human CD20 on cells", "test": "indirect flow cytometry, FITC-GAH Fc, SU-DHL-6 cells; none 4.6"}, "human CD20 on cells [33]": {"molecular_target": "T3, human CD20 on cells", "test": "indirect FACS, FITC-GAH Fc, Daudi cells; none 3.1"}}, "data": [{"binder": "milatuzumab (hLL1, humanized anti-CD74 mAb) (antibody, V domains shown) VH: QVQLQQSGSELKKPGASVKVSCKASGYTFTNYGVNWIKQAPGQGLQWMGWINPNTGEPTFDDDFKGRFAFSLDTSVSTAYLQISSLKADDTAVYFCSRSRGKNEAWFAYWGQGTLVTVSS VL: DIQLTQSPLSLPVTLGQPASISCRSSQSLVHRNGNTYLHWFQQRPGQSPRLLIYTVSNRFSGVPDRFSGSGSGTDFTLKISRVEAEDVGVYFCSQSSHVPPTFGAGTRLEIK", "values": [{"measurement": "Geometric Mean Fluorescence", "setting": "human CD74 on cells [1]", "result": 8.7}, {"measurement": "Geometric Mean Fluorescence", "setting": "human CD74 on cells [2]", "result": 95.1}, {"measurement": "Geometric Mean Fluorescence", "setting": "human CD74 on cells [3]", "result": 17.3}, {"measurement": "Geometric Mean Fluorescence", "setting": "human CD74 on cells [4]", "result": 7.8}, {"measurement": "GEO MEAN Fluorescence", "setting": "human CD74 on cells [5]", "result": 10.1}, {"measurement": "Geometric Mean Fluorescence", "setting": "human CD74 on cells [6]", "result": 23.3}, {"measurement": "Geometric Mean Fluorescence", "setting": "human CD74 on cells [7]", "result": 8.66}, {"measurement": "Geometric Mean Fluorescence", "setting": "human CD74 on cells [8]", "result": 95.1}, {"measurement": "Geometric Mean Fluorescence", "setting": "human CD74 on cells [9]", "result": 7.9}, {"measurement": "Geometric Mean Fluorescence", "setting": "human CD74 on cells [10]", "result": 48.8}, {"measurement": "Geometric Mean Fluorescence", "setting": "human CD74 on cells [11]", "result": 23.2}, {"measurement": "Geometric Mean Fluorescence", "setting": "human CD74 on cells [12]", "result": 7.81}, {"measurement": "Geometric Mean Fluorescence", "setting": "human CD74 on cells [13]", "result": 17.3}, {"measurement": "Geometric Mean Fluorescence", "setting": "human CD74 on cells [14]", "result": 48.8}]}, {"binder": "epratuzumab (hLL2, humanized anti-CD22 mAb) (antibody, V domains shown) VH: QVQLVQSGAEVKKPGSSVKVSCKASGYTFTSYWLHWVRQAPGQGLEWIGYINPRNDYTEYNQNFKDKATITADESTNTAYMELSSLRSEDTAFYFCARRDITTFYWGQGTTVTVSS VL: DIQLTQSPSSLSASVGDRVTMSCKSSQSVLYSANHKNYLAWYQQKPGKAPKLLIYWASTRESGVPSRFSGSGSGTDFTFTISSLQPEDIATYYCHQYLSSWTFGGGTKLEIK", "values": [{"measurement": "Geometric Mean Fluorescence", "setting": "human CD22 on cells [15]", "result": 11}, {"measurement": "GEO MEAN Fluorescence", "setting": "human CD22 on cells [16]", "result": 6.76}, {"measurement": "Geometric Mean Fluorescence", "setting": "human CD22 on cells [17]", "result": 4.1}, {"measurement": "Geometric Mean Fluorescence", "setting": "human CD22 on cells [18]", "result": 6.4}, {"measurement": "Geometric Mean Fluorescence", "setting": "human CD22 on cells [19]", "result": 11}]}, {"binder": "veltuzumab (hA20, humanized anti-CD20 mAb) (antibody, V domains shown) VH: QVQLQQSGAEVKKPGSSVKVSCKASGYTFTSYNMHWVKQAPGQGLEWIGAIYPGMGDTSYNQKFKGKATLTADESTNTAYMELSSLRSEDTAFYYCARSTYYGGDWYFDVWGQGTTVTVSS VL: DIQLTQSPSSLSASVGDRVTMTCRASSSVSYIHWFQQKPGKAPKPWIYATSNLASGVPVRFSGSGSGTDYTFTISSLQPEDIATYYCQQWTSNPPTFGGGTKLEIK", "values": [{"measurement": "Geometric Mean Fluorescence", "setting": "human CD20 on cells [20]", "result": 8.9}, {"measurement": "Geometric Mean Fluorescence", "setting": "human CD20 on cells [21]", "result": 267}, {"measurement": "Geometric Mean Fluorescence", "setting": "human CD20 on cells [22]", "result": 1200}, {"measurement": "Geometric Mean Fluorescence", "setting": "human CD20 on cells [23]", "result": 10.1}, {"measurement": "GEO MEAN Fluorescence", "setting": "human CD20 on cells [24]", "result": 6.28}, {"measurement": "Geometric Mean Fluorescence", "setting": "human CD20 on cells [25]", "result": 204}, {"measurement": "Geometric Mean Fluorescence", "setting": "human CD20 on cells [26]", "result": 8.91}, {"measurement": "Geometric Mean Fluorescence", "setting": "human CD20 on cells [27]", "result": 267}, {"measurement": "Geometric Mean Fluorescence", "setting": "human CD20 on cells [28]", "result": 128}, {"measurement": "Geometric Mean Fluorescence", "setting": "human CD20 on cells [29]", "result": 241}, {"measurement": "Geometric Mean Fluorescence", "setting": "human CD20 on cells [30]", "result": 204}, {"measurement": "Geometric Mean Fluorescence", "setting": "human CD20 on cells [31]", "result": 10.1}, {"measurement": "Geometric Mean Fluorescence", "setting": "human CD20 on cells [32]", "result": 1200}, {"measurement": "Geometric Mean Fluorescence", "setting": "human CD20 on cells [33]", "result": 241}]}]}
